# Results reported in patent publication US20240002477A1 (UNIVERSITY OF CHICAGO, published 2024).
# Like-named read-outs stand apart in the source and are kept apart here.
# B1: S144-1079 (antibody, V domains shown)
# VH: QVQLVQSGAEVKKPGSSVKVSCKASGDTFGSYSITWVRQAPGQGLEWMGRIIPVLGIANYAQKFQGRVTITADKSTSTAYMELSSLRSEDTAVYYCAGGGCSGGNCYSWYNWFDPWGQGSLVTVSS
# VL: EIVLTQSPGTLSLSPGERATLSCRASQSVSSNYLAWYQQKPGQAPRLLIYGASSRATGIPERFSGSGSGTDFTLTISRLEPEDFAVYYCQQYGRSPYTFGQGTKLEIK
# B2: S144-1299 (antibody, V domains shown)
# VH: QVQLQESGPGLVKPSETLSLTCTVSGGSISSYYWSWIRQPPGKGLEWIGYINYRGITNYNPSLKSRVTISVDMSKNQFSLKLSSVTAADTAVYSCARLAVASRGTVDYWGQGTLVTVSS
# VL: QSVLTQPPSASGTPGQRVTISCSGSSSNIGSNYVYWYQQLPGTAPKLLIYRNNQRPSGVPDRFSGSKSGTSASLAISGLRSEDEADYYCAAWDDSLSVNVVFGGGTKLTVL
# B3: S144-1406 (antibody, V domains shown)
# VH: QVQLVQSGAEVKKPGASVKVSCKASGYTFTTYAMHWVRQAPGQRLEWMGWINAGNGNTKYSQNFQGRVTITRDTSASTAYMELSSLRSEDTAVYYCASLVGGDSSSWYDYMDVWGKGTTVTVSS
# VL: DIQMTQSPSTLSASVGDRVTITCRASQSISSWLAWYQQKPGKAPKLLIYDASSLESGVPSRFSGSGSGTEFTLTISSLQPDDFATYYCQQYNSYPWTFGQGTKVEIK
# B4: S564-14 (antibody, V domains shown)
# VH: EVQLVESGGGLVQPGGSLRLSCAASGLTFSSYWMSWARQAPGKGLEWVANIKKDGSEKYYVDSVKGRFTISRDNAKNSLYLQMNSLRVEDTAVYYCASEPPHYGGNSGAEYFQHWGQGTLVTVSS
# VL: SYVLTQPPSVSVAPGKTARITCGGNNIGSKSVHWYQQRPGQAPVLVIYYDSDRPSGIPERFSGSNSGNTATLTISRVEAGDEADYYCQVWDSSSDHHYVFGTGTKVTVL
# B5: S564-138 (antibody, V domains shown)
# VH: QVLLVQSGAEVKKPGASVKVSCKASGYTFTGYYLHWVRQAPGQGLEWMGWINPISGGTNYAQNFQDRVTMTRDTSIITAYMELSRLRSDDTAVYYCARLAYYYDSSAYRGAFDIWGQGTMVTVSS
# VL: QSALTQPASVSGSPGQSITISCTGTSSDVGGYNYVSWYQQHPGKAPKLMIYEVSNRPSGVSDRFSGSKSGNTASLTISGLQAEDEADYYCSSYTSSSTYVFGTGTKVTVL
# B6: S564-152 (antibody, V domains shown)
# VH: QVQLVESGGGVVQPGRSLRLSCAASGFTFSYYGMHWVRQAPGKGLEWVAVIWYDGSNKHYADSVKGRFTISRDNSKNTLYLQMNSLRAEDTAVYYCAKNAAPYCSGGSCYGTYFDYWGQGTLVTVSS
# VL: DIQMTQSPSSLSASVGDRVTITCQASQDINNYLNWYQQKPGKAPKLLIYDASNLETGVPSRFSGSGSGTDFTFTISSLQPEDIATYYCQQYDNVPPHTFGQGTKLEIK
# B7: S564-287 (antibody, V domains shown)
# VH: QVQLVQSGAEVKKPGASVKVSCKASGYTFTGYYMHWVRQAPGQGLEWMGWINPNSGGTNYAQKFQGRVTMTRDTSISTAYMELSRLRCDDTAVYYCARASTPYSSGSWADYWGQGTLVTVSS
# VL: QSALTQPASVSGSPGQSITISCTGTSSDVGGYNYVSWYQQHPGKAPKLMIYDVSNRPSGVSNRFSGSKSGNTASLTISGLQAEDEADYYCSSYASSSTWVFGGGTKLTVL
# B8: S24-278 (antibody, V domains shown)
# VH: QVQLVQSGAEVKKPGASVKVSCKASGYTFTGYYMHWVRQAPGQGLEWMGWINPNSGDTNYAQKFQGWVTMTRDTSLSTAYMELSRLKSDDTAVYYCARVGVGEYSGRHYYYYGMDVWGQGTTVTVSS
# VL: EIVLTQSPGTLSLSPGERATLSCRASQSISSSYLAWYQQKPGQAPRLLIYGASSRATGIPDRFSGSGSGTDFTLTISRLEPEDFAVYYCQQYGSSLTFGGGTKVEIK
# B9: S24-1378 (antibody, V domains shown)
# VH: EVQLVESGGGLVQPGGSLRLSCAASGFTVSSNYMSWVRQAPGKGLEWVSVIYSGGSTYYADSVKGRFTISRHNSKNTLYLQMNSLRAEDTAVYYCAREGYCTNGVCYRHAFDIWGQGTMVTVSS
# VL: QTVVTQEPSFSVSPGGTVTLTCGLSSGSVSTSYYPSWYQQTPGQAPRTLIYSTNTRSSGVPDRFSGSILGNKAALTITGAQADDESDYYCVLYMGSGISVFGGGTKLTVL
# B10: S144-67 (antibody, V domains shown)
# VH: EVQLVQSGAEVKKPGESLKISCKGSGYSFTTYWIAWVRQMPGKGLEWVGIIYPDDSDTRYSPSFQGQVTISADKSIGTAYLQWSSLKASDTAMYYCARGQYYDFWSGAGGVDVWGQGTTVTVSS
# VL: QSVLTQPPSVSGAPGQRVTISCTGSRSNIGAGYDVQWYQQVPGTAPKLLISGNSNRPSGVPDRFSGSKSGTSASLAITGLQAEDEADYYCQSYDSSLSGLRVFGGGTKLTVL
# B11: S144-69 (antibody, V domains shown)
# VH: EVQLVQSGAEVKKPGESLKISCKGSGYSFTSYWIGWVRQMPGKGLEWMGIIYPGDSDTRYSPSFQGQVTISADKSITTAYLQWSSLKASDTAMYYCARTQTTNWFDSWGQGTLVTVSS
# VL: DIQMTQSPSTLSVSVGDRVTITCRASQSVSSWLAWYQQKPGKAPKLLIYDASSLESGVPSRFSGSGSGTEFTLTISSLQPDDFATYYCQQYNSFYTFGQGTKLEIK
# B12: S144-175 (antibody, V domains shown)
# VH: QVQLVQSGAEVKKPGASVKVSCKASGYTFTGYYMHWVRQAPGQGLEWMGRINPNSGGTNFAQRFQGRVSMTRDTSISTAYMELSSLRSDDTAVYYCARGAKFEHLPFDIWGQGTMVTVSS
# VL: QSMLTQPPSASGTPGQRVTISCSGSSSNIGSNYVYWYQQLPGTAPKLLIYRNNQRPSGVPDRFSGSKSGTSASLAISGLRSEDEADYYCAAWDDRRWVFGGGTKLTVL
# B13: S144-208 (antibody, V domains shown)
# VH: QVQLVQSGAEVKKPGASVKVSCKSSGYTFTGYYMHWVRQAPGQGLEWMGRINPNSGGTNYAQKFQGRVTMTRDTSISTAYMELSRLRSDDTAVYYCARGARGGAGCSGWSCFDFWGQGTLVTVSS
# VL: QSALTQPRSVSGSPGQSVTISCTGTSSDVGGYKYVSWYQQHPGKAPKLMIYDVSKRPSGVPDRFSGSKSGNTASLTISGLQAEDEGDYYCCSYAGTYSLVFGGGTKVTV
# B14: S144-466 (antibody, V domains shown)
# VH: EVQLVQSGAEVKKPGESLKISCKGSGYRFTRYWIGWVRQMPGKGLEWMGIIYLGDSETRYSPSFQGQVTISADNSISTAYLQWSSLKASDTAMYYCARSSNWNYGDYWGQGTLVTVSS
# VL: DIQMTQSPSTLSASVGDRVTITCRASQSITSWLAWYQQKSGKAPKLLIYDASSLESGVPSRFSGSGSGTEFTLTISSLQPDDFATYYCQQYNSYPWTFGQGTKVEIK
# B15: S144-509 (antibody, V domains shown)
# VH: EVQLVQSGAEVKKPGESLKISCKGSAYTFTTYWIGWVRQMPGKGLEWMGIIYPGDSDTRYSPSFQGQVTISADKSISTAYLQWSSLKASDTAMYYCARLLLVAGPFDYWGQGTLVTVSS
# VL: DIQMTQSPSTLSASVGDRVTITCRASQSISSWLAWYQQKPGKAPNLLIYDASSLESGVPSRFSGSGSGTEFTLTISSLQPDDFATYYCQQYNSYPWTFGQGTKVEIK
# B16: S144-588 (antibody, V domains shown)
# VH: QLQLQESGPGLVKPSETLSLTCTVSGGSISSSSYYWGWIRQPPGKGLEWIGSIYYSGSTYYNPSLKSRFTISVDTSKNQFSLKLSSVTAADTAVYYCAAYQRKLGYCRGNSCFSCFDPWGQGTLVTVSS
# VL: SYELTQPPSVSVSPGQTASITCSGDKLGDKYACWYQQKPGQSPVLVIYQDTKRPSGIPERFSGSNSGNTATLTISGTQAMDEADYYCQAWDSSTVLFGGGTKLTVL
# B17: S144-741 (antibody, V domains shown)
# VH: QVHLVQSGAEVKKPGASVKVSCKASGYTFTGYYMNWVRQAPGQGLEWMGRINPNSGGTNYAQKFQGRVTMTRDTSISTAYMELSRLRSDDAAVYYCARAERYSSSWYNLYYWGQGTLVTVSS
# VL: not shown
# B18: S144-843 (antibody, V domains shown)
# VH: QVQLVESGGGVVQPGGSVRLSCAASGFDFTNNGMYWVRQAPGKGLEWVAFIRYDGNKQDYADSVKGRFTISRDNSKNTLYLQMSSLRPEDTAVYYCAKGVYTENYGWGQGTLVTVSS
# VL: EIVLTQSPGTLSLSPGERATLSCRASQTVTSRYLAWYQQKPGQAPRLLIYGASTRATGIPDRFSGSGSGTDFTLTISRLEPEDFAVYYCQQYGNSPPYTFGQGTKLEIK
# Experiments:
# [1] = biological target: SARS-CoV-2 spike receptor binding domain (SARS-CoV-2, UniProt P0DTC2 319-541)
# [2] = biological target: T1, SARS-CoV-2 open reading frame 8 protein (SARS-CoV-2, UniProt P0DTC8 16-121)
# T1 construct: domain: Ig-like domain; also called ORF8
# T1 sequence (P0DTC8 16-121, tags left off): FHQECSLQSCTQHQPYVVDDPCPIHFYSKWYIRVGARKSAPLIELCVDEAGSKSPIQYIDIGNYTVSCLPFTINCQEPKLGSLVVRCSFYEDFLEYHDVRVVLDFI
# [3] = biological target: SARS-CoV-2 spike receptor binding domain (SARS-CoV-2, UniProt P0DTC2 319-541); remark: listed apart in the source
# [4] = biological target: T2, SARS-CoV-2 open reading frame 8 (ORF8) protein (SARS-CoV-2, UniProt P0DTC8 16-121)
# T2 construct: domain: Ig-like domains; also called ORFS [sic]
# [5] = biological target: T3, SARS-CoV-2 open reading frame 8 protein (SARS-CoV-2, UniProt P0DTC8 16-121); remark: listed apart in the source
# T3 construct: domain: Ig-like domain; also called ORF8
# T3 sequence (P0DTC8 16-121, tags left off): as above
# T2 sequence (P0DTC8 16-121, tags left off): as above
binder,measurement,setting,value
B1,binding result,[1],binds
B2,binding result,[2],binds
B3,binding result,[3],binds
B4,binding result,[3],binds
B5,binding result,[3],binds
B6,binding result,[3],binds
B7,binding result,[2],binds
B8,binding result,[4],binds
B9,binding result,[4],binds
B10,binding result,[1],binds
B11,binding result,[1],binds
B12,binding result,[5],binds
B13,binding result,[5],binds
B14,binding result,[1],binds
B15,binding result,[1],binds
B16,binding result,[5],binds
B17,binding result,[5],binds
B18,binding result,[5],binds
